Reference: EP3573716B1, “BIOLOGICALLY ACTIVE FUSION PEPTIDE FOR USE IN THE TREATMENT OF SPINAL MUSCULAR ATROPHY (SMA)” (Istituti Clinici Scientifici Maugeri Spa Società Benefit, priority 2017, dated 2026)

Experiments:
[1] = test system: Smn knock-down NSC-34 motor neuronal cells (sh_Smn_519-FM5S clone); test: Apoptotic cell death (cells with condensed nuclei, Hoechst 33342) in Smn knock-down motor neuronal cells; format: cell-based, mouse; settings: 48 hours after the switch to DMed
Procedure: The psiRNA-hH1neo G2 (InvivoGen) and sh_Smn_519 (Shafey et al. Hypomorphic Smn knockdown C2C12 myoblasts reveal intrinsic defects in myoblast fusion and myotube morphology, 2005, Exp Cell Res 311:49-61) constructs were transfected into the NSC-34 cells using FuGENE HD Transfection Reagent (Promega) according to the manufacturer's instructions. Forty-eight hours after the transfection, cells were subject to drug selection with 1 mg/ml G418 (Sigma-Aldrich) to obtain stably transfected cell lines. Two weeks after the transfection, single clones were picked and expanded in a DMEM/10% FBS/G418-based medium to obtain the psiRNA and sh_Smn_519 NSC-34 clonal cell lines, respectively. […]
Twenty-four hours after plating, psiRNA and sh_Smn_519 NSC-34 stable clones were treated with various concentrations of transducible fusion protein/peptide (3 hours). […] Neurite outgrowth and/or cell death were subsequently analyzed (see "Immunocytochemistry") .
Cells were rinsed in phosphate-buffered saline (PBS) and fixed in 4% PFA for 20 min. […] The number of cells showing condensed nuclei was counted as previously described.
Subsequently, the neuroprotective activity of the two peptides was evaluated. […] Forty-height hours after the switch to DMed, the impact of the two TAT48-57-fusion peptides towards cell death was determined in terms of reduction in the number of cells with condensed nuclei. […]

[2] = test system: Smn knock-down NSC-34 motor neuronal cells (sh_Smn_519-FM5S clone); test: Neuritogenesis and neurite outgrowth (morphometric analysis, β-tubulin III immunostaining) in Smn knock-down motor neuronal cells; format: cell-based, mouse
Procedure: The psiRNA-hH1neo G2 (InvivoGen) and sh_Smn_519 (Shafey et al. Hypomorphic Smn knockdown C2C12 myoblasts reveal intrinsic defects in myoblast fusion and myotube morphology, 2005, Exp Cell Res 311:49-61) constructs were transfected into the NSC-34 cells using FuGENE HD Transfection Reagent (Promega) according to the manufacturer's instructions. Forty-eight hours after the transfection, cells were subject to drug selection with 1 mg/ml G418 (Sigma-Aldrich) to obtain stably transfected cell lines. Two weeks after the transfection, single clones were picked and expanded in a DMEM/10% FBS/G418-based medium to obtain the psiRNA and sh_Smn_519 NSC-34 clonal cell lines, respectively. To induce differentiation, clones were maintained in culture with differentiation medium (DMed) (1:1 DMEM plus Ham's F12, 1% FBS, 1% penicillin/streptomycin, and 1% modified Eagle's medium nonessential amino acids; see 48).
Twenty-four hours after plating, psiRNA and sh_Smn_519 NSC-34 stable clones were treated with various concentrations of transducible fusion protein/peptide (3 hours). Protein/peptide in excess were subsequently removed and cells were maintained in culture in DMed for 24 and 48 hours. Cells were then fixed and stained, as described below. Neurite outgrowth and/or cell death were subsequently analyzed (see "Immunocytochemistry") .
For immunostaining, cells were incubated for 1 hour with a blocking/permeabilizing solution (5% Serum, 0.1% Triton X-100, in PBS) at room temperature. To evaluated neurite outgrowth, cells were immunostained using a mouse antibody to β-tubulin isotype III (Sigma-Aldrich). Neurite length was measured according to a protocol previously established in our laboratory using ImageJ software (National Institutes of Health) and NeuronJ plug-in. Briefly, only processes as long as twofold the average cell body dimension were considered neurites and measured. […] A total of about 100 cells per group were analyzed. […]

B1: TAT48-57-SMN^235-294: fusion peptide of carrier peptide TAT48-57 (SEQ ID NO: 1) and SMN^235-294 carboxy-terminal domain (SEQ ID NO: 29) as active peptide portion (peptide, listed as Homo sapiens)
chain: GRKKRRQRRRPFPSGPPIIPPPPPICPDSLDDADALGSMLISWYMSGYHTGYYMGFRQNQKEGRCSHSLN
modifications: HIV-1; Fragment of the full-length human SMN protein, i.e. the SMN235-294 carboxy-terminal domain
diminished the number of cells with condensed nuclei ([1]; 100 nM, sh_Smn_519-FM5S cells, versus untreated cells): ~45% | concentrations significantly protective towards apoptotic cell death ([1]; sh_SMN_519-FM5S cells): 1 to 100 nM | diminished the number of sh_Smn_519-FM5S cells without neurites ([2]; 10 nM, versus untreated sh_SMN_519-FM5S cells, 24 hours after the switch to DMed): ~40% | concentration with significant effect on number of cells without neurites and mean length of the longest neurite per cell ([2]; sh_Smn_519-FM5S clone, 3 hours pre-incubation, then differentiating conditions (DMed)): above 10 nM | increased the mean length of the longest neurite per cell ([2]; sh_Smn_519-FM5S clone, apparently 10 nM, versus untreated cells, 24 hours after the switch to DMed): 30%
